These results are taken from patent publication US20160032001A1 (APEXIGEN, published 2016).

The labels stand for the following.
B1: clone 408 rabbit anti-RANKL antibody (antibody, V domains shown)
VH: QSVEESGGRLVTPGTPLTLTCTVSGFSLSTDVVSWVRQAPGKGLEWIGYTWNGGATFYASWAKGRFTFSKTSTTVDLKITSPTTEDTATYFCARGYNGMDPWGPGTLVTVSS
VL: DMTQTPASVEAAVGGAVTIKCQASQNIGSNLAWYHQKPGQPPKLLISKASTLASGVPSRFKGSGSGTEFTLAISDLECADAATYYCQQGYTTKNVVNPFGGGTEVVVK
B2: clone EBI-51-22 rabbit anti-RANKL antibody (antibody, V domains shown)
VH: QSVEESGGRLVTPGTLLTLTCTVSGFSLSTDVLSWVRQAPGKGLEWIGYTWSGGSTYYASWAKGRFTISKTSSTTVDLKITSPTTEDTATYFCARGFNPFDPWGPGTLVTVSS
VL: DMTQTPASVSDPVGGTVTIKCQASQNIGSNLAWYQQKPGQRPKLLIYRASTLASGVSSRFKGSGSGTQFTLTISDLECADAATYYCQQGYSAGNVDNNAFGGGTEVVVK
B3: clone 23 rabbit anti-RANKL antibody (antibody, V domains shown)
VH: QEQLKESGGGLVTPGGTLTLTCTASGFSLSSDGMSWVRQAPGKGLEWIGYIYSGSSPYYANWAKGRFTISKTSSTTVDLKMTSLTTEDTATYFCARHGSGGGWYLDIWGPGTLVTVSS
VL: AYDMIQTPASVEVAVGGTVTINCQASQTIGTNLAWYQQKPGQRPKLLIYAASTLPSGVSSRFKGSGSGTQFTLTISDVECSDAATYYCQQAYSVGNVDNAFGGGTEVVVK
notes: also called RabMAb 23; parent 23 rabbit antibody
B4: humanized clone 23 antibody, VH 23HZD-1 HC with humanized VL 23 Vkb, IgG1 (antibody, V domains shown)
VH: EVQLVESGGGLVQPGGSLRLSCAASGFSLSSDGMSWVRQAPGKGLEWIGYIYSGSSPYYANWAKGRFTISKDSSKNTVYLQMNSLRAEDTAVYFCARHGSGGGWYLDIWGPGTLVTVSS
VL: DIQMTQSPSSLSASVGDRVTINCQASQSIGSNLAWYQQKPGKRPKLLIYAASTLPSGVPSRFSGSGSGTDFTLTISSLQPEDFATYYCQQAYSVGNVDNAFGGGTKVEIK
notes: also called h23 IgG1
B5: h23n IgG2 humanized clone 23 antibody (antibody, V domains shown)
VH: B4 VH with E1Q, V2E, A23V, K75T, Y79F, S100D
VL: B4 VL with R43A, P59S, S76N, Q79E, P80A, F83A
notes: IgG2; also called h23n VH and VL
B6: humanized clone 23 antibody, VH 23HZD-1 HC with humanized VL 23 Vkb, IgG2 (antibody, V domains shown)
VH: B4 VH
VL: B4 VL
notes: also called humanized 23 vkb; humanized 23 VKB
B7: clone 193 rabbit anti-RANKL antibody (antibody, V domains shown)
VH: QSVEESGGRLVTPGTPLTLTCTFSGFSLSNNAINWVRQAPGKGLEWIGYTWSGGGTYCASWAKGRFTISKTSSTTVDLKMTSLTTEDTATYFCARAYDSEWDRLDLWGQGTLVTVSS
VL: VMTQTPASVSGPVGGTVTIKCQASQSIGSNLGWYQQKPGQPPKLLIFSASNLESGVPSRFKGSGSGTQFTLTISDLECDDAATYYCQQGYTTNNVLNAFAGGTEVVVK
B8: clone 191 rabbit anti-RANKL antibody (antibody, V domains shown)
VH: QSVEESGGRLVTPGTPLTLTCTVSGFSLYTNLINWVRQAPGKGLEWIGYINYGASAYYANWAKGRFTISQTSSTTVDLKMTSLTIEDTATYFCARGYGNDWDRLDLWGQGTLVTVSS
VL: IVMTQTPSPVSGAVGGTVTINCQASQSIGSNLAWYQQKPGQPPKLLIYSASILASGAPSRVSGSGYGTEFTLTISGVQCADAATYYCQQGYTTNADNIFGGGTEVVVE
B9: clone 480 rabbit anti-RANKL antibody (antibody, V domains shown)
VH: QSLEESGGRLVTPGGSLTLTCTVSGFSLSNYEINWVRQAPGKGLEWIGYIDVGSGTWYASWAKGRFTISKTSTTVDLKITSPTTGDTATYFCSRSYNPMDLWGPGTLVTVSS
VL: DMTQTPASVEVAVGGTVTIKCQASQNIGSNLAWYQQKPGQRPKLLIYSASTLASGVPSRFKGSGSGTQFTLTISGVQCDDAATYYCQQGYSVGNVNNAFGGGTEVVVK
B10: clone 476 rabbit anti-RANKL antibody (antibody, V domains shown)
VH: QSLEESGGGLVQPEGSPTLTCTAYLIDFSRYGYMCWVRQAPGKGLEWIGCIHAGRSGRTYYANWAKGRFTISKTSSTTVTLQMTSLTAADTATYFCAKSGDSYVGYFALWGPGTLVTVSS
VL: DIVMTQTPASVEAAVGGTVTIKCQASENIYNYLSWYQQKPGQPPKLLIYEASKLASGVSSRFKGSGSGTEFTLTISDLECADAATYYCQSYYDVTSHSYDNPFGGGTEVVVS
B11: clone 547 rabbit anti-RANKL antibody (antibody, V domains shown)
VH: B3 VH with D32N, N61S, T91K, G98V, S118L
VL: DMIQTPASVEVAVGGTVTINCQASQSIGSNLAWYQQKPGQRPKLLIYGASTLASGVSSRVKGSGSGTQFTFTISDVECTDAATYYCQQAYSISNVDNAFGGGTEVVVK
B12: humanized clone 23 antibody, VH 23HZD-1 HC with humanized VL 23 Vk (antibody, V domains shown)
VH: B4 VH
VL: B4 VL with S28T, S31T
notes: also called humanized 23 Vk; 23LHZD
B13: humanized clone 408 anti-RANKL antibody (antibody, V domains shown)
VH: EVQLVESGGGLVQPGGSLRLSCAVSGFSLSTDVVSWVRQAPGKGLEWIGYTWNGGATFYASWAKGRFTFSKDSSKNTVYLQMNSPRAEDTAVYFCARGYNGMDPWGPGTLVTVSS
VL: DIQMTQSPSSLSASVGDRVTIKCQASQNIGSNLAWYQQKPGKPPKLLISKASTLASGVPSRFSGSGSGTDFTLTISSLQPEDFATYYCQQGYTTKNVVNPFGGGTKVEIK
B14: humanized clone EBI-51-22 anti-RANKL antibody (antibody, V domains shown)
VH: B13 VH with V34L, N53S, A56S, F58Y, F69I, Y99F, G101P, M102F
VL: DIQMTQSPSSLSASVGDRVTIKCQASQNIGSNLAWYQQKPGKRPKLLIYRASTLASGVPSRFSGSGSGTDFTLTISSLQPEDFATYYCQQGYSAGNVDNNAFGGGTKVEIK
notes: also called humanized EBI-51-22; humanized EBI51-22

Residue numbers refer to the chain shown, from its start.

One assay has as its target T1, human RANKL protein (human, UniProt O14788 140-317, limits assumed).
T1 sequence (looked up): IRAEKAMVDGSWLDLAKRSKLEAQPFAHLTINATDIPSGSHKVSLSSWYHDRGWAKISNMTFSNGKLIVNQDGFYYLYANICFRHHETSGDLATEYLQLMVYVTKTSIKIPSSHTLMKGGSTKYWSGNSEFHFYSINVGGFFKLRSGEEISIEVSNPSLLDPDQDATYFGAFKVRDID
As to the kind of experiment: cell-based or functional assay.
For the molecule B1, the “IC50 in a RAW cell assay (TRAP activity, OD 405 nM)” value (“IC50 in a RAW cell assay” below) stood at 0.00644 µg/mL.

Take B2: the “IC50 in a RAW cell assay” value was 0.0036 µg/mL.

In the case of B3, the “IC50 in a RAW cell assay” value amounted to 0.00171 µg/mL.

For the next assay, the target named is T1, human RANKL protein. Description: surface plasmon resonance.
A word on the Kd: it is the constant that tells how readily two partners part at equilibrium. Lower therefore signals higher affinity. As usually defined, the koff is the first-order rate constant of dissociation. Read a low koff as a long-lived complex. By kon is commonly meant the second-order rate constant of association. Low readings indicate slower complex formation, high ones faster complex formation. As to B1, the Kd was determined as 0.432 nM, the koff was determined as 0.000262 s⁻¹ and the kon was 607000 M⁻¹ s⁻¹.

The molecule B2 had a Kd of 0.312 nM, a koff of 0.000275 s⁻¹ and a kon of 880000 M⁻¹ s⁻¹.

For the molecule B3, the dissociation constant Kd is 0.162 nM, the koff was 0.000154 s⁻¹ and the kon is 950000 M⁻¹ s⁻¹.

A further assay addresses T1, human RANKL protein. Description: ELISA on RANKL protein (OD450nm).
For orientation: EC50 means the concentration that produces a half-maximal response. A lower EC50 goes with an effect from little substance. Take B4: it took 0.0425 µg/mL to reach a half-maximal effect (EC50).

B5 yielded an EC50 of 0.0117 µg/mL.

B6 gave an EC50 of 0.0238 µg/mL.

A further assay addresses T2, RANKL expressed on the surface of 293 cells (UniProt O14788 1-317, limits assumed).
T2 construct: whole, on cells; also called RANKL-transfected 293 cells; cells expressing RANKL
T2 sequence (looked up): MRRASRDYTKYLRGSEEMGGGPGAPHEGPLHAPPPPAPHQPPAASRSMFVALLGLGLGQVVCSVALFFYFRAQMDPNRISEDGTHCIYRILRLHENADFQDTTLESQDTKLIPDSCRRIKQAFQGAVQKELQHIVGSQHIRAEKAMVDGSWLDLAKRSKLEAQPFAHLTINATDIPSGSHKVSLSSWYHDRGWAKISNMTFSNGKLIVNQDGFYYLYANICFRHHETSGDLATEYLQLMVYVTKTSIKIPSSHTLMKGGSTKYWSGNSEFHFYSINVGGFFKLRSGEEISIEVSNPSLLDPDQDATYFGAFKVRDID
Description: flow cytometry (MFI) on RANKL-transfected 293 cells. (In general: A flow cytometer gives signals particle by particle.)
In turn, B7 gave an EC50 of 0.135 µg/mL.

As for B3, the response was half-maximal at 0.0903 µg/mL (EC50).

As for B8, the EC50 is 0.174 µg/mL.

For the next assay, the target named is T2, RANKL expressed on the surface of 293 …. The assay is described as above. The source holds these as a separate data set.
Regarding B1, it took 0.0898 µg/mL to reach a half-maximal effect (EC50).

Take B9: the EC50 stood at 0.172 µg/mL.

The molecule B10 displayed an EC50 of 0.0632 µg/mL.

In the case of B11, it took 0.398 µg/mL to reach a half-maximal effect (EC50).

The target is the same in the next assay. The description is as above. This is another data set of the same source.
As for B2, the response was half-maximal at 0.083 µg/mL (EC50).

The next assay shares this target. The description is as above. The source holds these as a separate data set.
As to B12, a half-maximal response (EC50) required 0.414 µg/mL.

The molecule B6 gave an EC50 of 0.947 µg/mL.

Molecule B3 yielded an EC50 of 0.1 µg/mL.

For a further assay the target is unchanged. The assay is described as above. The source holds these as a separate data set.
Molecule B1 showed an EC50 of 0.303 µg/mL.

On to B13, for which the EC50 amounted to 0.731 µg/mL.

Molecule B14 registered an EC50 of 0.361 µg/mL.

B2 registered an EC50 of 0.4 µg/mL.

A further assay has as its target T1, human RANKL protein. Description: competition ELISA: RANKL (0.5 ug/ml) pre-incubated with the antibody, then binding to coated human RANK (8 ug/ml) detected; blocked partner RANK.
What is called IC50 is the concentration that gives 50% inhibition. Higher therefore signals weaker potency in that assay. The molecule B7 registered an IC50 of 0.0665 µg/mL.

For B3, the IC50 amounted to 0.0111 µg/mL.

For the molecule B8, the IC50 stood at 0.0823 µg/mL.

In another assay the target is T1, human RANKL protein. The description is as above. The source holds these as a separate data set.
Molecule B1 came in with an IC50 of 0.058 µg/mL.

Another assay has as its target T1, human RANKL protein. Described as above. The source holds these as a separate data set.
B9 showed an IC50 of 0.0284 µg/mL.

Regarding B10, the IC50 was found to be 0.0301 µg/mL.

In the case of B11, the IC50 was determined as 0.0812 µg/mL.

For the next assay, the target named is T1, human RANKL protein. Described as above. The source holds these as a separate data set.
In turn, B2 had an IC50 of 0.0439 µg/mL.

The next assay concerns the target T1, human RANKL protein. As to the kind of experiment: competition ELISA: RANKL (0.5 ug/ml) pre-incubated with the antibody, then binding to coated RANK (8 ug/ml) detected; blocked partner RANK [table at the lower right].
B1 came in with an IC50 of 0.098 µg/mL.

B13: the IC50 came to 0.096 µg/mL.

B14: the IC50 turned out to be 0.127 µg/mL.

B12 showed an IC50 of 0.112 µg/mL.

For B6, the IC50 was 0.081 µg/mL.

In turn, B2 yielded an IC50 of 0.083 µg/mL.

For the molecule B3, the IC50 stood at 0.041 µg/mL.
